Measurements from patent publication US20220135701A1 (Genentech, published 2022).
Read-outs that look alike come from different tables or passages of the source.

Tests used:
[1] = biological target: T1, human MerTK on human macrophages (human, UniProt Q12866 21-999); assay: cell-based or functional assay
T1 sequence: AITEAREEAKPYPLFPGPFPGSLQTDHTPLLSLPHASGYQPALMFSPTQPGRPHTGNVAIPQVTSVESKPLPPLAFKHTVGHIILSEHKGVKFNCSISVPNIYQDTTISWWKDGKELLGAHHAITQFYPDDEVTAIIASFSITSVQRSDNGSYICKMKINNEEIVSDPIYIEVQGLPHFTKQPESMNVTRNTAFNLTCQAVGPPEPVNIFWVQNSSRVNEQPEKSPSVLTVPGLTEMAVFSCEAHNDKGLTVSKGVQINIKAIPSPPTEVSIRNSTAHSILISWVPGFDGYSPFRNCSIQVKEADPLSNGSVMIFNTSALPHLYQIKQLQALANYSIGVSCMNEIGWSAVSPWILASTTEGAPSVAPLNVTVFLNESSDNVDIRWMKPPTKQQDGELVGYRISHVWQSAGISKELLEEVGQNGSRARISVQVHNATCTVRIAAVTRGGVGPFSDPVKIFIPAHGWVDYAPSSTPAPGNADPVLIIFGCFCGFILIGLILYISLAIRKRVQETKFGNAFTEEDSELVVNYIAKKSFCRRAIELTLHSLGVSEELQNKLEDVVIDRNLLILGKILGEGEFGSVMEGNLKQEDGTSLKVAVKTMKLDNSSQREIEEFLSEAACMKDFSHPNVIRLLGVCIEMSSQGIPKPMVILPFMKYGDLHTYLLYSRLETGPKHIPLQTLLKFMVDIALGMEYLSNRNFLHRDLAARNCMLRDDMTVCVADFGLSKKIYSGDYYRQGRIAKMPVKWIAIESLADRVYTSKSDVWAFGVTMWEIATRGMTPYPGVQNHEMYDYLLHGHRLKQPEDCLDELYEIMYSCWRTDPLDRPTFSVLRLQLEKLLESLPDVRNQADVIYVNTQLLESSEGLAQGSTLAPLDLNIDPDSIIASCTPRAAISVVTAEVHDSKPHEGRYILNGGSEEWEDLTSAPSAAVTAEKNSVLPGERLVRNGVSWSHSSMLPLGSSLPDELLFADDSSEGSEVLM

[2] = biological target: T2, mouse MerTK on mouse macrophages (mouse, UniProt Q60805 19-994); assay: cell-based or functional assay
T2 sequence (looked up): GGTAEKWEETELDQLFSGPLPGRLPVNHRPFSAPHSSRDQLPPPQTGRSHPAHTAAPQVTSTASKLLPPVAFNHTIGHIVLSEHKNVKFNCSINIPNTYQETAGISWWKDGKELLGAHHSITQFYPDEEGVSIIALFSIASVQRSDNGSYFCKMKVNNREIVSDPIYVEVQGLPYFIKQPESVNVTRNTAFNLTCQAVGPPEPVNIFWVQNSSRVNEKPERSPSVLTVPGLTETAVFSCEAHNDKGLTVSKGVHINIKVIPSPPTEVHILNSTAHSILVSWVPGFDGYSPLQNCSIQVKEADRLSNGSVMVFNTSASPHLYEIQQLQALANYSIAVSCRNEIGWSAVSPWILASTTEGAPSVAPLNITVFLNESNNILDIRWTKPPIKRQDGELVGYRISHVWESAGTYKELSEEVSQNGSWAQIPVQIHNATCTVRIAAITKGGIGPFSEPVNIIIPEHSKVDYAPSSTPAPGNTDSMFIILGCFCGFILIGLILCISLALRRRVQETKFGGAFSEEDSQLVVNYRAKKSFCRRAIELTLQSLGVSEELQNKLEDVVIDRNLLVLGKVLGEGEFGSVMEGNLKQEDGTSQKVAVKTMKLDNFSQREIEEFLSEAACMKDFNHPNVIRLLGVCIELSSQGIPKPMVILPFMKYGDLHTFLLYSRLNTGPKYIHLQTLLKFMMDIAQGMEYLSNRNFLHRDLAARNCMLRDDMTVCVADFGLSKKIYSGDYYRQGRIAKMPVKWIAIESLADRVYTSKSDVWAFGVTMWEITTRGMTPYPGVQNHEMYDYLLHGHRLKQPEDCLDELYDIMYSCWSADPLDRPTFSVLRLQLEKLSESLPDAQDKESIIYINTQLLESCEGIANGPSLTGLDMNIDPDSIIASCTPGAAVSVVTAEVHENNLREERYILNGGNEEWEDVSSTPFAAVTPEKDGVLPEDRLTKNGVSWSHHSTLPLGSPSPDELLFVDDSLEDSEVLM

[3] = biological target: T1, human MerTK on human macrophages; assay: cell-based or functional assay; remark: listed apart in the source
rat MerTK = biological target: T3, rat MerTK (rat, UniProt P57097 23-496, limits assumed); assay: SPR BIAcore T200, Ab captured, 37C
T3 construct: Soluble analyte in SPR
T3 sequence (looked up): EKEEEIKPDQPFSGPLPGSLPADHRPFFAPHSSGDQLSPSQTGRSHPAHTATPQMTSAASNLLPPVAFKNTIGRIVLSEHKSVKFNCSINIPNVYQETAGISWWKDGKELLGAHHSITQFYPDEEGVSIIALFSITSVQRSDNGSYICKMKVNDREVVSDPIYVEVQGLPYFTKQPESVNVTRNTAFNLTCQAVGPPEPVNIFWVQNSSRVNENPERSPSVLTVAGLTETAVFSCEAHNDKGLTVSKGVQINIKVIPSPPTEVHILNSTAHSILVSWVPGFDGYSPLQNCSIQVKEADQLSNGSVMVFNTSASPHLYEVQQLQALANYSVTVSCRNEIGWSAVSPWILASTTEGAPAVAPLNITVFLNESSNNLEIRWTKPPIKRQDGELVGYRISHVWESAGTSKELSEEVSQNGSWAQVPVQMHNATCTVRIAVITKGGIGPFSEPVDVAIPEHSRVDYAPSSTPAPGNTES
Description: Each rabbit and humanized antibody was subjected to a binding assay to determine its affinity to MerTK derived from various species.
All binding affinity determinations were obtained using Surface Plasmon Resonance (SPR) measurements from a BIAcore™-T200 instrument. Briefly, each rabbit or humanized antibody was captured to achieve approximately 100 RU (Response Units). Then, 3-fold serial dilutions of MerTK from various species (0.4 nM to 100 nM) diluted in HBS-EP buffer (0.01M HEPES pH 7.4, 0.15M NaCl, 3 mM EDTA and 0.05% v/v surfactant P20) was injected into the BIAcore™-T200 instrument at 25° C. or 37° C. with a flow rate of 30 μl/min. Association rates (kₒₙ) and dissociation rates (koff) were calculated using a simple one-to-one Langmuir binding model (BIAcore T200 evaluation software version 2.0). The equilibrium dissociation constant (KD) was calculated as the ratio koff/kₒₙ.

B1: h10F7.v16 (antibody, V domains shown)
VH: EVQLVESGGGLVQPGGSLRLSCAVSGFSLSGYAMSWVRQAPGKGLEYIGVISSSGSSYYPSWAKGRFTISKDNSKNTLYLQMGSLRAEDMAVYYCARVQFYVGYAVYGYGIIDRLDLWGQGTLVTVSS
VL: DIVLTQSPDSLAVSLGERATINCQSSKSVYNNNWLSWYQQKPGQPPKLLIYRASTLESGVPDRFSGSGSGTDFTLTISSLQAEDVAVYFCAGGYSSSSSANAFGGGTKVEIK
notes: Humanized, human IgG1; also called 10F7 Fully Humanized; 10F7 Humanized polished mAb
IC50 (nM), efferocytosis by human macrophages, Average (3 Donors) [1]: 0.41 nM
IC50 (nM), efferocytosis by mouse macrophages, Average [2]: 0.91 nM
IC50 (nM), efferocytosis by human macrophages, Average (3 Donors) [3]: 0.41 nM
IC50 (nM), efferocytosis by human macrophages, Donor A [3]: 0.42 nM
IC50 (nM), efferocytosis by human macrophages, Donor B [3]: 0.53 nM
IC50 (nM), efferocytosis by human macrophages, Donor C [3]: 0.27 nM
Max Inhibition (%), efferocytosis by human macrophages, Average (3 Donors) [3]: 69%
Max Inhibition (%), efferocytosis by human macrophages, Donor A [3]: 76%
Max Inhibition (%), efferocytosis by human macrophages, Donor B [3]: 73%
Max Inhibition (%), efferocytosis by human macrophages, Donor C [3]: 60%
Kd (rat MerTK): 3.2 nM
